The assay concerns the target T1, human PD-L1 (WT) (human, UniProt Q9NZQ7 19-127, limits assumed).
T1 construct: also called human PD-L1 N-terminal IgV domain
The assay can be described thus: affinity measurement, method not stated.

T1 sequence (Q9NZQ7 19-127 limits assumed): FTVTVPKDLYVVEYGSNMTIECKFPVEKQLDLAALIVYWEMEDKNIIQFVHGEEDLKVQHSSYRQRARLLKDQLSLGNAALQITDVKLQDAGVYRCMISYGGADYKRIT

B1: PD-L1 ISVD-9 (VHH)
VHH: QVQLVESGGGLVQPGGSLRLSCAASGKMSSRRCMAWFRQAPGKERERVAKLLTTSGSTYLADSVKGRFTISRDNSKNTVYLQMNSLRAEDTAVYYCAADSFEDPTCTLVTSSGAFQYWGQGTLVTVSS
notes: also called ISVD specific for PD-L1; aPDL1.9
In turn, B1 yielded a Kd of 5.92 nM.

As usually defined, the Kd is the free concentration of one partner at which half of the binding sites on the other are occupied at equilibrium, for simple one-to-one binding. The low end stands for tighter binding, the high end for weaker binding.

The record behind these values is US20230015590A1 (JIANGSU ALPHAMAB BIOPHARMACEUTICALS, published 2023).
